Results taken from patent US20040120954A1, “Regulation of mt1-mmp activity” (priority 2000, published 2004).

Columns and labels:
[1] = target: Membrane-type 1 matrix metalloproteinase (MT1-MMP) (human) (UniProt P50281)
[2] = target: MT1-F/NGFR (chimera of the ectodomain of MT1-F with the transmembrane/cytoplasmic domain of NGFR) (human) (UniProt P50281); assay: COS1 cells co-transfected with MT1-F/NGFR, Rac1DA and MT1PEX-F, PY20 Western blot (FIG. 24)
[3] = target: MT1-F/NGFR (chimera of the ectodomain of MT1-F with the transmembrane/cytoplasmic domain of NGFR) (human) (UniProt P50281); assay: competition with the dimer formation of MT1-F/NGFR in co-transfected COS1 cells, PY20 Western blot (FIG. 10)
[4] = target: FLAG epitope-tagged MT1-MMP (MT1-F) (human) (UniProt P50281); assay: binding of 25 nM 125I-labeled TIMP-2 to transfected CHO-K1 cells at 0 C, with and without BB-94

Matrigel invasion by HT1080 cells (GFP-positive invading cells) [1]	decrease of the phosphotyrosine signal of MT1-F/NGFR [2]	inhibition of the phosphorylation of MT1-F/NGFR [3]	decrease in TIMP-2 binding on the cell surface on co-transfection of MT1PEX-F, against MT1-F alone [4]	Substance
70%	43%	> 90%	–	Catalytic domain-deleted FLAG-tagged MT1-MMP (MT1PEX-F) (from UniProt P50281)
–	–	–	37%	Recombinant human TIMP-2 (tissue inhibitor of metalloproteinase-2) (from UniProt P16035)
